This data set deals with the molecule itself. Description: SDS-PAGE.

For orientation: stoichiometry N means a count of units in the complex or per binding partner.

B1: BbZIP, zinc transporter from Bordetella bronchiseptica, full-length, N-terminal His6 (natural protein, UniProt A0A0H3LM39 1-309, looked up)
chain: MNQPSSLAADLRGAWHAQAQSHPLITLGLAASAAGVVLLLVAGIVNALTGENRVHVGYAVLGGAAGFAATALGALMALGLRAISARTQDAMLGFAAGMMLAASAFSLILPGLDAAGTIVGPGPAAAAVVALGLGLGVLLMLGLDYFTPHEHERTGHQGPEAARVNRVWLFVLTIILHNLPEGMAIGVSFATGDLRIGLPLTSAIAIQDVPEGLAVALALRAVGLPIGRAVLVAVASGLMEPLGALVGVGISSGFALAYPISMGLAAGAMIFVVSHEVIPETHRNGHETTATVGLMAGFALMMFLDTALG
Turning to B1, the “stoichiometry N” value stood at 2.
